Experimental data reported in IntAct's records for PubMed 22596162.

B1: E3 ubiquitin-protein ligase RLIM (Mus musculus), Q9WTV7 (parent)
chain: MENSDSNDKGSDQSAAQRRSQMDRLDREEAFYQFVNNLSEEDYRLMRDNNLLGTPGESTEEELLRRLQQIKEGPPPQSPDENRAGESSDDVTNSDSIIDWLNSVRQTGNTTRSGQRGNQSWRAVSRTNPNSGDFRFSLEINVNRNNGSQTSENESEPSTRRLSVENMESSSQRQMENSASESASARPSRAERNSAEAVTEVPTTRAQRRARSRSPEHRRTRARAERSRSPLQPTSEIPRRAPTLEQSSENEPEGSSRTRHHVTLRQQISGPELLGRGLFAASGSRNPSQGTSSSDTGSNSESSGSGQRPPTIVLDLQVRRVRPGEYRQRDSIASRTRSRSQAPNNTVTYESERGGFRRTFSRSERAGVRTYVSTIRIPIRRILNTGLSETTSVAIQTMLRQIMTGFGELSYFMYSDSDSEPSASVSSRNVERVESRNGRGSSGGGNSSGSSSSSSPSPSSSGESSESSSEMFEGSSEGGSSGPSRRDGRHRAPVTFDESGSLPFLSLAQFFLLNEDDEDQPRGLTKEQIDNLAMRSFGENDALKTCSVCITEYTEGNKLRKLPCSHEYHVHCIDRWLSENSTCPICRRAVLSSGNRESVV

Variants of: B1
Settings: with zfp42_mouse Zfp42, P22227
zfp42_mouse Zfp42, P22227, sequence (P22227 whole entry): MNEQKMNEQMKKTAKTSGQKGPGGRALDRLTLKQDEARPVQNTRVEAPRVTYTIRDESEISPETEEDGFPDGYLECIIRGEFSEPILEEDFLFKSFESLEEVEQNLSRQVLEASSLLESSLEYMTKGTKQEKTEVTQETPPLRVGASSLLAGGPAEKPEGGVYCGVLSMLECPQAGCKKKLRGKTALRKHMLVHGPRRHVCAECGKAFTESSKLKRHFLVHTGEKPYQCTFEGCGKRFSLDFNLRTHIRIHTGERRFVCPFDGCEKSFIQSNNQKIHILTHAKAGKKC

effect of a mutation on the interaction	Variant
with no effect	H569A;C572A
